What was measured:
[1] = molecular target: E3 ubiquitin-protein ligase NEDD4 WW2 domain (human)
[2] = molecular target: E3 ubiquitin-protein ligase NEDD4 WW4 domain (human)
[3] = molecular target: N-terminal domain of clathrin (CLTC NTD) (human) (UniProt Q00610)
[4] = molecular target: V domain of programmed cell death 6-interacting protein (ALIX V) (human) (UniProt Q8WUM4)
V domain of programmed cell death 6-interacting protein (ALIX V) (human), sequence (Q8WUM4 whole entry): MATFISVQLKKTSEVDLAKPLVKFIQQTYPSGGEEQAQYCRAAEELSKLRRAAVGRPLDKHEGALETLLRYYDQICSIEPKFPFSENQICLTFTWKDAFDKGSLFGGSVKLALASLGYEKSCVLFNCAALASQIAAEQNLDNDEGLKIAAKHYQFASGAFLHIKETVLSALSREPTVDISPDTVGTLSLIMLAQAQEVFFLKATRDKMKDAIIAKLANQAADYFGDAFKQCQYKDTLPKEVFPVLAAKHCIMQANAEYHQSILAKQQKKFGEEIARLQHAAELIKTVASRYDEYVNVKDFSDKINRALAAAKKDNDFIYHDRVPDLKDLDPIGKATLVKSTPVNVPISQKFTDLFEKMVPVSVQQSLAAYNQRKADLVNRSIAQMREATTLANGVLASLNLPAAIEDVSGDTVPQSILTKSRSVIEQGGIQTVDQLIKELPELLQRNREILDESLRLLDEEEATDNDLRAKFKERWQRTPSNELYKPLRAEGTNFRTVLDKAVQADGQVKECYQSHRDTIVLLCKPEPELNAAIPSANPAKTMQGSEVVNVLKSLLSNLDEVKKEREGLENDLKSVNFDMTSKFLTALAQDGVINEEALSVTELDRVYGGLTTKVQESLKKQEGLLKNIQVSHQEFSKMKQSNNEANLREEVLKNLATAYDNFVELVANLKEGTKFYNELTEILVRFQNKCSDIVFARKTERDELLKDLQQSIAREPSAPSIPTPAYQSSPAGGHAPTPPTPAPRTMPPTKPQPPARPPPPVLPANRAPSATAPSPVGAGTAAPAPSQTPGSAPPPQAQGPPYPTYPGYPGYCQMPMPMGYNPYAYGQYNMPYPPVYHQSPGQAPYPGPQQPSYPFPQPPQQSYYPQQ

E3 ubiquitin-protein ligase NEDD4 WW2 domain (human), sequence (P46934 whole entry, the tested form may be a part): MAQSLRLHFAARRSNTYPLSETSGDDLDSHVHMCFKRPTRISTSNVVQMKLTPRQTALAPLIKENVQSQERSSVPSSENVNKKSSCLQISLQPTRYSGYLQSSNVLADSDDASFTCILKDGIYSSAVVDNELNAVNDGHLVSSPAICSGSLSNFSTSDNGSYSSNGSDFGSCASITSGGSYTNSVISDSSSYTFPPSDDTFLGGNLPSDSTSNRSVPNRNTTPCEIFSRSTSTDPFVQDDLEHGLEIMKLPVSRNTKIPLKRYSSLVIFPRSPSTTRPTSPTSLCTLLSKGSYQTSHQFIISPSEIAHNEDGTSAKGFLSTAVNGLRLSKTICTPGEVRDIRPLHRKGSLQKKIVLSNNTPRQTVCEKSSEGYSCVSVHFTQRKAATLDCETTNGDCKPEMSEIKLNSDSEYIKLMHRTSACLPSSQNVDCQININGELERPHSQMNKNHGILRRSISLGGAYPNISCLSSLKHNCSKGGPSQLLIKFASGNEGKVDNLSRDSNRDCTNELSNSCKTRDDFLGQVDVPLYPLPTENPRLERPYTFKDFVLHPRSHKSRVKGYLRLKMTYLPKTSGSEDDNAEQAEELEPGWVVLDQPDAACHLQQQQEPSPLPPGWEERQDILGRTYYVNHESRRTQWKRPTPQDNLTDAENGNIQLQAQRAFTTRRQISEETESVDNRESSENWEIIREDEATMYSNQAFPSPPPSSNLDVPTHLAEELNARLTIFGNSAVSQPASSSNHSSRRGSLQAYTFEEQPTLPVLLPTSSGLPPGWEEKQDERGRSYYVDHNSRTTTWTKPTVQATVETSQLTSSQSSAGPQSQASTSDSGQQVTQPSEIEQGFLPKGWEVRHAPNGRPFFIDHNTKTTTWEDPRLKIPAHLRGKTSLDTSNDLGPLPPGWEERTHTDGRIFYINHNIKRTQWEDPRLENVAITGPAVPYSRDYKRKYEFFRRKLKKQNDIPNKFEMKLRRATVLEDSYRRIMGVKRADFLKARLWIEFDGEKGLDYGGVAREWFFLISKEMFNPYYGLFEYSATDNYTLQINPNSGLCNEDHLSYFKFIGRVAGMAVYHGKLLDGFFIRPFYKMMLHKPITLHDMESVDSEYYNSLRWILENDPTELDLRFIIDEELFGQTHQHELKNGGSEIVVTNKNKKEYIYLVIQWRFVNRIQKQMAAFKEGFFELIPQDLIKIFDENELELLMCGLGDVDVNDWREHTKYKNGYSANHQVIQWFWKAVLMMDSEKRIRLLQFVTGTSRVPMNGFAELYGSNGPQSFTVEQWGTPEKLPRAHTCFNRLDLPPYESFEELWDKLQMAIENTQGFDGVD
E3 ubiquitin-protein ligase NEDD4 WW4 domain (human), sequence (P46934 whole entry, the tested form may be a part): as above
N-terminal domain of clathrin (CLTC NTD) (human), sequence (Q00610 whole entry, the tested form may be a part): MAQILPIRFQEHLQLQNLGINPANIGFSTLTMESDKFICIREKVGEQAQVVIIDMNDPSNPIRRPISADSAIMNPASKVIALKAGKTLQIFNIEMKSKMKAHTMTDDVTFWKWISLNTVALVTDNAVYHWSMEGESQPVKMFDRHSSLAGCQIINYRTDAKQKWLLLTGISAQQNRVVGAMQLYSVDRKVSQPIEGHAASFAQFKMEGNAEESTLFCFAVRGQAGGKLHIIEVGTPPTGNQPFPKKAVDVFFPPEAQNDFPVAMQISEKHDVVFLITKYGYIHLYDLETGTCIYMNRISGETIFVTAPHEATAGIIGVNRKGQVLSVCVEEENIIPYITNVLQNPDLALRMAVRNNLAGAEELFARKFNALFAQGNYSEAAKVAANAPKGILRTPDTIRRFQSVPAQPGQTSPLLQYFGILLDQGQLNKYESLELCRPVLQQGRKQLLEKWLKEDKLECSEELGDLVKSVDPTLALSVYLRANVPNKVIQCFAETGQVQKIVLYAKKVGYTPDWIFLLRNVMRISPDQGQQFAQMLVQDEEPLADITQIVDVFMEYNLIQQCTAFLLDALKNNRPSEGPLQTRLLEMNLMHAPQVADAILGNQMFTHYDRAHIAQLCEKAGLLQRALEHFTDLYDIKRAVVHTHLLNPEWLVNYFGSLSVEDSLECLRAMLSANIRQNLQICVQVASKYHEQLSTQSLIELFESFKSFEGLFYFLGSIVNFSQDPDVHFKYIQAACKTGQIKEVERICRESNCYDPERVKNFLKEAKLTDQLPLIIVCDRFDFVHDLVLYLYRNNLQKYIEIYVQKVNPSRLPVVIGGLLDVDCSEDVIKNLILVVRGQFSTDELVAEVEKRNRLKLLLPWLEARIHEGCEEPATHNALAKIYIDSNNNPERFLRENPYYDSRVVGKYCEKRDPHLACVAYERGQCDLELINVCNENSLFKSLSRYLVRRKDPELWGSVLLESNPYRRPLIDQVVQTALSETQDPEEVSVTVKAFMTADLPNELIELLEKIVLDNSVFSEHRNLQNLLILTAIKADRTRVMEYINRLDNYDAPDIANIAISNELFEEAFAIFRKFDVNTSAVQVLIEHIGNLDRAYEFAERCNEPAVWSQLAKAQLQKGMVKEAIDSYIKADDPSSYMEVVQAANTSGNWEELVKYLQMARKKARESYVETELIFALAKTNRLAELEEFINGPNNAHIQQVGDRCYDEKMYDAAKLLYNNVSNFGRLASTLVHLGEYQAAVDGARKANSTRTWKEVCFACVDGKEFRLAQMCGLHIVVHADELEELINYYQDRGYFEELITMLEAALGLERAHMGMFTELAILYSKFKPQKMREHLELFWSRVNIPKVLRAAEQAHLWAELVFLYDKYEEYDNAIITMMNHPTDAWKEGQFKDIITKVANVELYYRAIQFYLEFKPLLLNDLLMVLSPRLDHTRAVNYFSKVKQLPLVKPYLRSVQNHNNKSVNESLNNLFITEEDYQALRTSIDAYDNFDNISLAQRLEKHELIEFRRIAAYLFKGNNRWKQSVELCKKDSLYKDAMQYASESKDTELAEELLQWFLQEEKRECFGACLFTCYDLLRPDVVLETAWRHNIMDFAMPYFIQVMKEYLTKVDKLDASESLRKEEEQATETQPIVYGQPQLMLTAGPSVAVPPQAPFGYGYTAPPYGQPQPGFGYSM

| Kd [1] | Kd [2] | Kd [3] | Binder | Kd [4] |
| --- | --- | --- | --- | --- |
| 15 µM | 35 µM |  | EPDQEPPPPYQEQVPVPVYHPTPSQ [RNF11 31-65 (Human)] |  |
|  |  | 300 µM | GDLLGDLLNLDLGPPVY [AP1B1 626-641 (Human)] |  |
|  |  | 40 µM | VPVDTNLIEFDTNYAT [ARRB2 367-382 (Human)] |  |
|  |  |  | PPPVLYPNLAELENYM [SDCBP2 39-54 (Human)] | 2.1 µM |
|  |  |  | MSSLYPSLEDLKVDQA [SDCBP2 1-16 (Human)] | 0.29 µM |
| 13 µM | 44 µM |  | EPDQEPPPPYQEQVPV [RNF11 31-56 (Human)] |  |
